The assay addresses bacteriophage P2 of Lactococcus lactis. Briefly: cell-based or functional assay.

B1: VHH#1 (VHH)
VHH: QVQLQESGGGLVQAGGSLRLSCTASRRTGSNWCMGWFRQLAGKEPELVVALNFDYDMTYYADSVKGRFTVSRDSGKNTVYLQMNSLKPEDTAIYYCAARSGGFSSNRELYDGWGQGTQVTVSS
The molecule B1 came in with a neutralisation in microtiter acidification assay (lowest effective concentration) of 47 ng/mL and a reduction in the phage titre (plaque titration on L. lactis LM0230) of over 99%.

The values are drawn from patent publication US20030165511A1.
